Assays:
[1] = biological target: T1, FcγRIIb extracellular domain with C-terminal His tag (human, UniProt P31994 43-217); test: SPR (Biacore), antibody captured via antigen peptide, FcγR as analyte; relative binding
T1 construct: extracellular domain; also called FcgRIIb; 2b
T1 sequence (looked up): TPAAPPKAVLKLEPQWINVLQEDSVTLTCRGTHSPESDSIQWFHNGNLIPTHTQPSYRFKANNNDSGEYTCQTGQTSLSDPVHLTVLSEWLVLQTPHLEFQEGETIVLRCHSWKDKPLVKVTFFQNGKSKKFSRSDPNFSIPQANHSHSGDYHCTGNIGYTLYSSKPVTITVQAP
Description: (§1) The heterodimerized antibodies He Abs in which one of the H chains was introduced with an alteration were assayed for their binding activities to each activating FcγR and inhibitory FcγR according to the method described in Example 4. […] The activating FcγRs in FIGS. 26, 27, 28, and 29 are FcγRIa, FcγRIIa (R), FcγRIIa (H), and FcγRIIIa, respectively.
(§2) Analysis of interaction between objective antibody and the FcγR was carried out using Biacore T100 (GE Healthcare). HBS-EP+ (GE Healthcare) was used as the running buffer, and the measurement temperature was set to 25° C. Chips produced by immobilizing the antigen peptide by the amine coupling method to a Series S Sencor Chip CM5 (GE Healthcare), or alternatively, chips produced by allowing preliminarily biotinylated antigen peptides to interact with and immobilize onto a Series S Sensor Chip SA (certified) (GE Healthcare) were used. Antibodies of interest were captured onto an antigen peptide-immobilized chip, and allowed to interact to each FcγR diluted with running buffer. To regenerate and repeatedly use the chip, the antibodies captured on the chip were washed off by reacting 10 mM glycine-HCl, pH 1.5.

[2] = biological target: T2, FcγRIa extracellular domain with C-terminal His tag (human, UniProt P12314 16-292); test: as above
T2 construct: extracellular domain; also called FcgRI; 1a
T2 sequence (P12314 16-292): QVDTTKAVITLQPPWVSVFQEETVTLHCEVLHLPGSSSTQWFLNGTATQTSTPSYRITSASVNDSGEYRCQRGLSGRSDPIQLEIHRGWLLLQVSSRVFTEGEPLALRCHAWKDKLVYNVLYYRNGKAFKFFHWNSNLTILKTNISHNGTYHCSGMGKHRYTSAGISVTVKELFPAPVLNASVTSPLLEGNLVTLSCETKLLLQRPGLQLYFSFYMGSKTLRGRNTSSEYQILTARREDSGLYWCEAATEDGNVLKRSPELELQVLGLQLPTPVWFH
Description: as §1, §2

[3] = biological target: T2, FcγRIa extracellular domain with …; test: SPR (Biacore); He/Con_1a divided by He/Con_2b (FcγRIa binding over FcγRIIb binding)
Description: as §1, §2

B1: GpH7-A5/GpH7-B3 variant Q295_16H/GpL16-k0 (antibody, human IgG1, kappa)
heavy 1: not shown
heavy 2: not shown
light: DIVMTQSPLSLPVTPGEPASISCQASESLVHSNRNTYLHWYLQKPGQSPQLLIYKVSNRFSGVPDRFSGSGSGTDFTLKISRVEAEDVGVYYCSQNTHVPPTFGQGTKVEIERTVAAPSVFIFPPSDEQLKSGTASVVCLLNNFYPREAKVQWKVDNALQSGNSQESVTEQDSKDSTYSLSSTLTLSKADYEKHKVYACEVTHQGLSSPVTKSFNRGEC
notes: Heterodimerized anti-glypican-3 IgG1; alteration only in the GpH7-B3 chain, EU numbering; also called He Ab
B1 was tested, and the He/Con_2b [1] was 62.7 % of GpH7-A5/GpH7-B3/GpL16-k0 (=100), the He/Con_1a [2] was 102 % of GpH7-A5/GpH7-B3/GpL16-k0 (=100) and the “He_1a/2b (Ia/IIb)” value [3] was 1.64 ratio.

B2: GpH7-A5/GpH7-B3 variant Q295_13S/GpL16-k0 (antibody, human IgG1, kappa)
heavy 1: not shown
heavy 2: not shown
light: DIVMTQSPLSLPVTPGEPASISCQASESLVHSNRNTYLHWYLQKPGQSPQLLIYKVSNRFSGVPDRFSGSGSGTDFTLKISRVEAEDVGVYYCSQNTHVPPTFGQGTKVEIERTVAAPSVFIFPPSDEQLKSGTASVVCLLNNFYPREAKVQWKVDNALQSGNSQESVTEQDSKDSTYSLSSTLTLSKADYEKHKVYACEVTHQGLSSPVTKSFNRGEC
notes: as for B1
In the case of B2, the He/Con_2b [1] is reported as 56.9 % of GpH7-A5/GpH7-B3/GpL16-k0 (=100), the He/Con_1a [2] is reported as 102 % of GpH7-A5/GpH7-B3/GpL16-k0 (=100) and the “He_1a/2b (Ia/IIb)” value [3] is reported as 1.79 ratio.

B3: GpH7-A5/GpH7-B3 variant Q295_15Y/GpL16-k0 (antibody, human IgG1, kappa)
heavy 1: not shown
heavy 2: not shown
light: DIVMTQSPLSLPVTPGEPASISCQASESLVHSNRNTYLHWYLQKPGQSPQLLIYKVSNRFSGVPDRFSGSGSGTDFTLKISRVEAEDVGVYYCSQNTHVPPTFGQGTKVEIERTVAAPSVFIFPPSDEQLKSGTASVVCLLNNFYPREAKVQWKVDNALQSGNSQESVTEQDSKDSTYSLSSTLTLSKADYEKHKVYACEVTHQGLSSPVTKSFNRGEC
notes: as for B1
With B3 the He/Con_2b [1] was 65.4 % of GpH7-A5/GpH7-B3/GpL16-k0 (=100), the He/Con_1a [2] was 102 % of GpH7-A5/GpH7-B3/GpL16-k0 (=100) and the “He_1a/2b (Ia/IIb)” value [3] was 1.56 ratio.

B4: GpH7-A5/GpH7-B3 variant S298_03V/GpL16-k0 (antibody, human IgG1, kappa)
heavy 1: not shown
heavy 2: not shown
light: DIVMTQSPLSLPVTPGEPASISCQASESLVHSNRNTYLHWYLQKPGQSPQLLIYKVSNRFSGVPDRFSGSGSGTDFTLKISRVEAEDVGVYYCSQNTHVPPTFGQGTKVEIERTVAAPSVFIFPPSDEQLKSGTASVVCLLNNFYPREAKVQWKVDNALQSGNSQESVTEQDSKDSTYSLSSTLTLSKADYEKHKVYACEVTHQGLSSPVTKSFNRGEC
notes: as for B1
With B4 the He/Con_2b [1] was 64.5 % of GpH7-A5/GpH7-B3/GpL16-k0 (=100), the He/Con_1a [2] was 110 % of GpH7-A5/GpH7-B3/GpL16-k0 (=100) and the “He_1a/2b (Ia/IIb)” value [3] was 1.7 ratio.

B5: GpH7-A5/GpH7-B3 variant Y296_01G/GpL16-k0 (antibody, human IgG1, kappa)
heavy 1: not shown
heavy 2: not shown
light: DIVMTQSPLSLPVTPGEPASISCQASESLVHSNRNTYLHWYLQKPGQSPQLLIYKVSNRFSGVPDRFSGSGSGTDFTLKISRVEAEDVGVYYCSQNTHVPPTFGQGTKVEIERTVAAPSVFIFPPSDEQLKSGTASVVCLLNNFYPREAKVQWKVDNALQSGNSQESVTEQDSKDSTYSLSSTLTLSKADYEKHKVYACEVTHQGLSSPVTKSFNRGEC
notes: as for B1
For B5, the He/Con_2b [1] was 79.3 % of GpH7-A5/GpH7-B3/GpL16-k0 (=100), the He/Con_1a [2] was 103 % of GpH7-A5/GpH7-B3/GpL16-k0 (=100) and the “He_1a/2b (Ia/IIb)” value [3] was 1.29 ratio.

B6: GpH7-A5/GpH7-B3 variant S298_07I/GpL16-k0 (antibody, human IgG1, kappa)
heavy 1: not shown
heavy 2: not shown
light: DIVMTQSPLSLPVTPGEPASISCQASESLVHSNRNTYLHWYLQKPGQSPQLLIYKVSNRFSGVPDRFSGSGSGTDFTLKISRVEAEDVGVYYCSQNTHVPPTFGQGTKVEIERTVAAPSVFIFPPSDEQLKSGTASVVCLLNNFYPREAKVQWKVDNALQSGNSQESVTEQDSKDSTYSLSSTLTLSKADYEKHKVYACEVTHQGLSSPVTKSFNRGEC
notes: as for B1
For B6, the He/Con_2b [1] was 70.6 % of GpH7-A5/GpH7-B3/GpL16-k0 (=100), the He/Con_1a [2] was 107 % of GpH7-A5/GpH7-B3/GpL16-k0 (=100) and the “He_1a/2b (Ia/IIb)” value [3] was 1.52 ratio.

B7: GpH7-A5/GpH7-B3 variant Q295_12R/GpL16-k0 (antibody, human IgG1, kappa)
heavy 1: not shown
heavy 2: not shown
light: DIVMTQSPLSLPVTPGEPASISCQASESLVHSNRNTYLHWYLQKPGQSPQLLIYKVSNRFSGVPDRFSGSGSGTDFTLKISRVEAEDVGVYYCSQNTHVPPTFGQGTKVEIERTVAAPSVFIFPPSDEQLKSGTASVVCLLNNFYPREAKVQWKVDNALQSGNSQESVTEQDSKDSTYSLSSTLTLSKADYEKHKVYACEVTHQGLSSPVTKSFNRGEC
notes: as for B1
B7 was tested, and the He/Con_2b [1] was 65.2 % of GpH7-A5/GpH7-B3/GpL16-k0 (=100), the He/Con_1a [2] was 100 % of GpH7-A5/GpH7-B3/GpL16-k0 (=100) and the “He_1a/2b (Ia/IIb)” value [3] was 1.54 ratio.

B8: GpH7-A5/GpH7-B3 variant Q295_20W/GpL16-k0 (antibody, human IgG1, kappa)
heavy 1: not shown
heavy 2: not shown
light: DIVMTQSPLSLPVTPGEPASISCQASESLVHSNRNTYLHWYLQKPGQSPQLLIYKVSNRFSGVPDRFSGSGSGTDFTLKISRVEAEDVGVYYCSQNTHVPPTFGQGTKVEIERTVAAPSVFIFPPSDEQLKSGTASVVCLLNNFYPREAKVQWKVDNALQSGNSQESVTEQDSKDSTYSLSSTLTLSKADYEKHKVYACEVTHQGLSSPVTKSFNRGEC
notes: as for B1
With B8 the He/Con_2b [1] was 44.4 % of GpH7-A5/GpH7-B3/GpL16-k0 (=100), the He/Con_1a [2] was 93.7 % of GpH7-A5/GpH7-B3/GpL16-k0 (=100) and the “He_1a/2b (Ia/IIb)” value [3] was 2.11 ratio.

B9: GpH7-A5/GpH7-B3 variant S298_05P/GpL16-k0 (antibody, human IgG1, kappa)
heavy 1: not shown
heavy 2: not shown
light: DIVMTQSPLSLPVTPGEPASISCQASESLVHSNRNTYLHWYLQKPGQSPQLLIYKVSNRFSGVPDRFSGSGSGTDFTLKISRVEAEDVGVYYCSQNTHVPPTFGQGTKVEIERTVAAPSVFIFPPSDEQLKSGTASVVCLLNNFYPREAKVQWKVDNALQSGNSQESVTEQDSKDSTYSLSSTLTLSKADYEKHKVYACEVTHQGLSSPVTKSFNRGEC
notes: as for B1
With B9 the He/Con_2b [1] was 11.9 % of GpH7-A5/GpH7-B3/GpL16-k0 (=100), the He/Con_1a [2] was 91.6 % of GpH7-A5/GpH7-B3/GpL16-k0 (=100) and the “He_1a/2b (Ia/IIb)” value [3] was 7.7 ratio.
